Laboratory results taken from article PMC5738438 (2017).

Experiments:
[1] = molecular target: H2A/H2B dimer (Xenopus, UniProt P06897 2-123; P02281 1-126)
[2] = molecular target: H3/H4 (Xenopus, UniProt P84233 21-136; P62799 17-103)

| Kd [1] | Kd [2] | Binder |
| --- | --- | --- |
| 9.36 µM |  | DYSWAEEEDE [Npm tail peptide (residues 122–131)] |
| 0.171 µM | 1.11 µM | Npm tail domain (residues 119–195) (domain or fragment) MEEDYSWAEEEDEGEEEEEEEEDPESPPKAVKRPAATKKAGQAKKKKLDKEDESSEEDSPTKKGKGAGRGRKPAAKK |
